The source of these data is the DeepSol protein solubility set.

The nature of this series: soluble on expression in E. coli; label from the status in PepcDB or PDB records.
As for “MKLESLVEEARQCQDRTVAVAAAEDEEVIEAVAMALEHRLGRFVLYGDRERLGRLLKEKGCARFSDVDVVHANSIGQAAELAVRAVHLNEADALMKGHVPTATLLKAVLNKEYGLRTGKVLSHVAVFEVPEFDRFVIVTDAAMNIAPDLEQKAQIVNNAVSIARSIGIERPKVAALAAVETVNPAMPATVDAAALAMMQKRGQIEHCLLDGPLALDNAVSLAAAKHKRIESEVAGQADILLVPDIESGNMLYKSLVYFANARVGAVIAGAKAPIVLTSRADSAESKLYSLALAICSAAK”, the “soluble on expression in E. coli” value was “not soluble”.

On to “NMIKAAISRQREFLADASAVQFTRNDQGIAGALKKIGSNVQGSTLNTKASDEMSHMMFGQSKLSGFSGLFATHPPLDERIRRIEPNWDGSYAQHSHAQNTAFDNEQVSGFAVGGGSPASQSASPSEQLSETGQQLISQLPPELVDIAREPYSARFIAFALIFDGSDIQREMIKSYVPLASQSTLLPWLDYDLPLHLRFPLLELALPALKSLSEAQKISLCKVLRELSETDNQYSLAEWCVINLLEKQLLASFGFIKQHKSLKQLEESVFWLLRELAWVSHSQADKAQRAYHCALAHLGFPEVKLEPANSNWHLSRAALELLLQLKPNDRRMFVKACRLAIESDGEITVAEGEIYRVIACFLEVPEPPLTISG”, for which the “soluble on expression in E. coli” value is reported as “not soluble”.

As to “SDWKEVLRRRLATPNTCPNKKKSEQELKDEEMDLFTKYYSEWKGGRKNTNEFYKTIPRFYYRLPAEDEVLLQKLREESRAVFLQRKSRELLDNEELQNLWFLLDKHQTPPMIGEEAMINYENFLKVGEKAGAKCKQFFTAKVFAKLLHTDSYGRISIMQFFNYVMRKVWLHQTRIGLSLYDVAGQGYLRESDLENYILELIPTLPQLDGLEKSFYSFYVCTAVRKFFFFLDPLRTGKIKIQDILACSFLDDLLELRDEELSKESQETNWFSAPSALRVYGQYLNLDKDHNGMLSKEELSRYGTATMTNVFLDRVFQECLTYDGEMDYKTYLDFVLALENRKEPAALQYIFKLLDIENKGYLNVFSLNYFFRAIQELMKIHGQDPVSFQDVKDEIFDMVKPKDPLKISLQDLINSNQGDTVTTILIDLNGFWTYENREALVANDSENSADLDDT”, the “soluble on expression in E. coli” value was “soluble”.

On to “MAHHHHHHMLSSISPKRYSFDKQGNIKEIDFLSCKSVILPEQHLNAKDNFICTTSILPNFYETPPDKASKLKMTQENNIDKANMGTNVYVQRTSSLSNMNVLQYADEVHNNLQDSNVHEINEPLIFADVNQYCGDANTQGIDPGVVAVSNALFAYNSAFQSIPIKSSPNVFKRRSKGEANSEWSNAFVTRVDPYECTDPEEEFKPYEVTKYYDEGKVKTVFNFDQENYNQDM”, for which the “soluble on expression in E. coli” value is listed as “soluble”.

In the case of “GNDIDYSVGGSVSDAVSEVTEYANAKKNDPYGSWYTGRKVGEIWGYRAEGLIQTQEEADAYNAEYDLSYISGKLWEPGDVKYIDLDGNKVIDRGDNRLVDGDMGDQTIIGNTTPRYQYTFNGYISWKGLSLSVMFQGVGKRDWVAGGAYFWGFGPYAQVTVFKEHMDYWRPDNPGAYYPKPYINSAGGVAPYQDKNIQRTDLYLQNAAYCRLKNLTLSYDLPNAWVHKAGLQKVQVFFSGENLLTFTKLKGMFDPEAIFSSNSYTSEGGKNYPMNRVLSLGFIVNL”, the “soluble on expression in E. coli” value is reported as “not soluble”.

For “MGSDKIHHHHHHMKYREILEAAVRAPSGENCQPWRFVMEGDVIRIFNIPDQDTSLFNLHQRASYVAHGALLENLSIAAPAFGYAPDISLFPDSHVPNLVAAVRMTEGPSFDDSLYPYIPKRCTNRKRYNGGALSAAESQTLLSVAERVPGGKVALTGSVQDKAEVAEVNALNDRLVFENEHLHAFLFEHVRWSDAEARERGDGLDIKTLELAPPDSLAFPLLKSWPLVDFLKNFGVPRIIAGSARKLALSAAAIGVVSVPGKGDKDCIAAGRLIERVWLEATKLGLSFQLMTGITLLMRRVLDGETENISSQHGELIKKAYGTLANRFGVEDGSLFIMFRVGRCGPPSVYSMRYPIDKVIDAP”, the “soluble on expression in E. coli” value is given as “not soluble”.

On to “MSNLVLYTLHLSPPCRAVELTAKALGLELEQKTINLLTGDHLKPEFVKLNPQHTIPVLDDNGTIITESHAIMIYLVTKYGKDDSLYPKDPVKQARVNSALHFESGVLFARMRFIFERILFFGKSDIPEDRVEYVQKSYELLEDTLVDDFVAGPTMTIADFSCISTISSIMGVVPLEQSKHPRIYAWIDRLKQLPYYEEANGGGGTDLGKFVLAKKEENAKA”, for which the “soluble on expression in E. coli” value is given as “soluble”.

On to “GETLDGEAALQAAIARLAAGDIVAIKGIGGFHLACDAGNPAAVATLRARKHRPAKPLAVMLPTATGLPAAAAALMGSPAAPIVLIAKAQVSGLCDEIAPGLAEVGVMLPSNPLQHLLLQGLARPIVMTSGNLSGRPPALSNAQALNELADIADGFLLHNRDIVQRMDDSLVRSSGEMLRRARGYVPDALPL”, for which the “soluble on expression in E. coli” value was “not soluble”.

Take “SLTAISKMTRGLDYYEVMGLTRSANDIDIRRAYRRLALKYHPDINKDGAAGDEFLRICEAYEVLCDPKTKGFYDLYGEDALKDGISDGNGGLKGPMYRFNPEESPKAVFERFFGTANPYEALEALSNQFESMTSEEAPARGKNKVYPLELTLEEIFHGCLKKVAHKRKVLLFSGEYVEEERQLTVDVKPGLPTGTRFVFEGEGNKTPKKEPGPVVFVLKPKPHPRFVRRGSDLVHKVTLPLHHALIGTTLDIRTLDDRDLKVPISDIMRPGSSLTVPGEGMPLPATPSARGNLVIEIDLLFPTHLTETQKMLLRSAFFLPPPTEQNEETKKALRDYEAAFKHDLKGWATVFKRL”: the “soluble on expression in E. coli” value was “not soluble”.

For “MGSDKIHHHHHHMPMNRIDRLLGMITLLQAKKFVSAEKIADKFKISKRTVFRDIKAICEQGIPVGSEPNKGYFIVDGYFLPPVLFNNDEANALLLTESLVKGFADKSISKHYSNALDKIKAGLKQVDKDKLEHMQDAIKFQLPERMNNDFEYLSILQVAVSDKKIIYIDYKNNKEEVSKREIEPIGLIFYAFSWHLIGWCHHRKAYRDFKVSRIIQMKNTGVPFKKNKHMPLSEYMKELPVNY”, the “soluble on expression in E. coli” value is “not soluble”.

For the sequence “TNLFHTYQYGKETMRGGSELTLKQSGAPTDQVTHENKSGLDKAYITQWSYGIGETWSLLIPDIKGGSSGYLGYDEKVMETVNPSYAQAIARMNRYWGDQP”, the “soluble on expression in E. coli” value is “not soluble”.

“MSLDKIRYGIMSTAQIVPRFVAGLRESAQAEVRGIASRRLENAQKMAKELAIPVAYGSYEELCKDETIDIIYIPTYNQGHYSAAKLALSQGKPVLLEKPFTLNAAEAEELFAIAQEQGVFLMEAQKSVFLPITQKVKATIQEGGLGEILWVQSVTAYPNVDHIPWFYSREAGGGALHGSGSYPLQYLQYVLGKEIQEVTGTATYQQGATDSQCNLALKFAEGTLGNIFINVGLKIPSEMTICGTKGQIVIPNFWKTDCAYYTDAQGNTVKWSEQFTSEFTYEINHVNQCLQDKKLTSPVMTKELTIATVKIVESFYQEWFDNEGHHHHHH”: the “soluble on expression in E. coli” value was “soluble”.

Take “MTERLEFTESAFEILGRKWNGLIIQSLLDSDRGSLHFAELSRSVHACSDRVLTVRLKELEDAGIIKRVCCPDNGKLGYRLTEKGSSMRPLMSEISRWAAENI”: the “soluble on expression in E. coli” value was “not soluble”.

“MSLGDERPDVLLTGLLFYDLVLTGLGKPPTPGEEIWTEGMGVSPGGIANLAVAASRFGLRTSLATVFGDDHYGAYCRGVLAGQEGIDLSLSRTADGWHTPVTVSLAYGHDRALVTHGQDPPYSQDALMGDPPEARTALVHIEAEPHAWLAKAAANGTRIYADVGWDPTQQWSRDLLDQLSLCHAFLPNEAEAMAYTRTDSAMAALGTLTDLVPVAVVTRGGDGAVAVDQTTGEYAEVPALDIDVLDPTGAGDVFGASFVAASLGGWPLAERLRFAVLAAGLSVQRHGGALAAPGWYGVHRWWHSLEDPGLRRAYGFLADRIPADPGPPVRHAPVTPPDATRREGHHHHHH”: the “soluble on expression in E. coli” value is on record as “soluble”.

With “MAHHHHHHMALRGVPIRLGVHRVGYTHPSTLPVPCAQRWDLRLARARIFQEYIEEKAPGAWQLEDERSMSPEFKTFTGYPMREMRPGYGQNLPDFIMKKRLPNNTHYELFARRDIPNEENAMYGKYLYDMTVHGTSLPSTYRMHKDINKAQRNDRKLSGNRFRVLCSSGAKKPPSGWEPIPDATEEEE”, the “soluble on expression in E. coli” value is on record as “not soluble”.

As to “MSPGAWPRPRVVVSACLGFAAVRYSGELIPDKVVAALKEHVDFVPVCPEVEIGLGVPRPVVRLVRGEGGGPRMVQPKTGEDLTERMRAFSQRFLQGLGEVEGFLLKNRSPSCALKDAKRYAHAEGGGVVGKGPGLFAQAVEEAFPLLPKEDEGRLTNPRIRAHFFTRIFALARLRRVEDLPGLMAFHARYKLLLLAYNQKEARALGRLLAGAKGRPFPEVHGAYEEGFLRATERPWRLGAMADALLHAFGHFKKALAPREKAHFLDLLADFREERLPLEAPLALLASWARRFAEPYVEAQALLEPYPRALMHVPGA”, the “soluble on expression in E. coli” value is listed as “soluble”.

Consider “NVPVGMSIGVYDYELSDYAERMDAISGGAIRSSFARNGGIGFDIGASLQIGYMIKFTDSIGLSILAEAGYSHDTYSYISRLDKNNSYSYSFESLQLGVIPKFNIKNFAIGIGGGVKIPLAGNIHTKTSLFESNTKLTSDDIKRLYEKALMPYIKVTFDYSIFFTQKTAFNIGLYLGYDFGLEPNIYTVDGAIDGNRLVVDEVSYSSFDVGLQVGLKFGPSTK”, for which the “soluble on expression in E. coli” value was “not soluble”.

In the case of “MSLTTSAHKHPYKIVASDLDGTLLAPNHQLSEFSKQTLKQLHDKGFTFIFATGRHHIDVAGIREIAGIPAYMITSNGARVHDQNDQLMYSKNVPQDLVQAIIDVVKHDKQLFVHLYRNDEWMLNKEDEILRDFHEDSGFTYRVFDVNNAPTDGIAKIFFTQEDQDHEHLVQYETLLNQRFGDKLNVAFSTPWCLEVMCAGVSKGDALQAVAESLHLGLENCIAFGDGMNDVEMLSMAGKGLVMGTAHEKVFNALPDNEVIGSNADDAVAHYLHQHLFEGGSHHHHHH”, the “soluble on expression in E. coli” value is “soluble”.

With “MGSDKIHHHHHHMRKAERLNDMMLFLNDKNSFQLSDIMAKYGVSRSTAIRDIQSLEEIGMPIYSERGRNGHYRVLRNRLLSPIVFNIDEVFALYFSMLTLKAYETTPFHLSVEKLKTKFERCLSAEKIEMLRKIEEVFSLGYIKHNNQCEFLDVILQFTMEEKVCQINYDNNGTEKTYIVQFYNISSAYGQWYVTSYNFETKRMQVFRCDKILALKENDTFEAKKMEELKGVADSFNKKADVTTFEVEIASNGVDLFFKENYPSMKLRQQEGRNCIHGFYHKGEERFIINYLLGYGEKIIAIQPDSLRDMLLNELDTIKKHMQNLSS”, the “soluble on expression in E. coli” value is “not soluble”.

For “INTVNLINQMKTLAAQAEGIKPDSGLNHASFSSVFQQALNQVNELSQTADSLKTRFEIGDPNVSLGEVMIASQKSNLGFEATLRVRNKLVQAYQDIMNMPV”, the “soluble on expression in E. coli” value is “not soluble”.

Regarding “MQKEFFQELQDILYEKNITIKFHSFQNFYEDFKSHKFIFNHEHQSIFKKNTSQQITLFHPTRIRRPKFLNSTHALAKIIHSVAHIEFNAINLALDASYRFKNLPLQFYYDWLEVADEEIKHFKLLNSALEELGYKYGDFPVHDNLESALEATKDSLSFRMGIVHRGLEAKGLDANPFVVQKLQSSNHSIKNLLMEYLEIILNDEIKHVKKGDTWWKFANQNKYNFIELCKTFKQFSLAGKKLNIQARIKAGFTQEECEVIEKFYSLEHHHHHH”, the “soluble on expression in E. coli” value is on record as “not soluble”.

For “DILVFTPRKSDAGISVILYPGAFVDALSYAPLANKLASSGYKTYIAEMPLNLAVFGKNRAADIIDEAPDEKFVIGGHSLGGVMSSRFAHENESEIEGVFFLASYPDKKGSLKNASFPALSITGTKDDVLNKDAYDKNKKYLPKDTTFVSIEGGNHAQFGSYGAQHGDGKATISEAEQTDQVSNALIAWLNTSVKNQER”, the “soluble on expression in E. coli” value is “soluble”.
